According to publication doi:10.1101/2021.12.04.471219 (bioRxiv, 2021):
Where no end group is shown, it is not given here.

What was measured:
Experiment in all cases: MST
[1] = target: PARD3 PDZ3 domain (residues 582-685) (human, UniProt Q8TEW0 582-685)
[2] = target: T1, MPP5 PDZ domain (residues 238-336) (human, UniProt Q8N3R9 238-336)
T1 sequence: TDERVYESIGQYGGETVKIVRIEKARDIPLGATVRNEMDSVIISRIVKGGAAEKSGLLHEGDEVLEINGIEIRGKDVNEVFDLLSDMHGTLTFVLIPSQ

[3] = target: T2, LNX2 PDZ2 domain (residues 334-426) (human, UniProt Q8N448 334-426)
T2 sequence: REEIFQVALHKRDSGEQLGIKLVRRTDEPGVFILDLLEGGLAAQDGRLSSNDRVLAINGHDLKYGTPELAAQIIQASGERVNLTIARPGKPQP

[4] = target: T3, ZO-1 PDZ2 domain (residues 184-264) (human, UniProt Q07157 184-264)
T3 sequence: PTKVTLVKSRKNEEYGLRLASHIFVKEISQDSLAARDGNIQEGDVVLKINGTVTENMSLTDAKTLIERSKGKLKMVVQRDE

[5] = target: MLLT4 PDZ domain (residues 961-1056) (human) (UniProt P55196)

PARD3 PDZ3 domain (residues 582-685), sequence (Q8TEW0 582-685): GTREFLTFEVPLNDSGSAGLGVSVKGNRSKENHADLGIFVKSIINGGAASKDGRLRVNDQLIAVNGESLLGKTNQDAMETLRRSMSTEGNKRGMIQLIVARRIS

In the case of NLNSSRVLDLLV (not fully specified) [C-terminal SARS-CoV-2-E PBM P71L mutant peptide (12-mer, beta variant B.1.351)], the Kd [1] is reported as greater than 1000 µM, the binding result [2] is reported as “binds” and the Kd [3] is reported as 47 µM. For the same binder, the Kd [4] was 133 µM and the Kd [5] was greater than 1000 µM.
